Test results taken from patent US20230093708A1, “PROTEIN NANOPARTICLE DESIGN AND APPLICATION” (Duke University, priority 2020, published 2023).

Experiments:
[1] = Static and dynamic light scattering (SLS/DLS) of block co-polypeptides; format: physicochemical; details: for Nagg / Rg(nm) / Rh (nm) / ρ: Table 1; for Nagg / Rg(nm) / Rh (nm): 10 μM in PBS, 15 °C; for ρ: shape factor Rg/Rh
Outline: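 Samples at 10 μM in PBS (140 mM NaCl, 10 mM phosphate, 3 mM KCl, pH 7.4), filtered 0.45 μm, measured at 15 °C over 30°–150° in 5° steps. Rh from cumulant fit of DLS, extrapolated to zero angle. Rg and MW from partial Zimm plots of SLS.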

[2] = Temperature-programmed dynamic light scattering; format: physicochemical; details: between 4 °C and 37 °C; micelles 20-37 °C; 10 μM in 140 mM PBS
Procedure: Temperature-programmed dynamic light scattering experiments were carried out using a Dynapro plate reader (Wyatt Technology; Santa Barbara, Calif.) with samples filtered through 0.45 μm Millex-GV filters. Data were collected at increments of 1° C., and the cumulant fit hydrodynamic radius was taken as the radius. The Tt was defined as the temperature at which aggregates of size hundreds of nanometers were formed.
Each block co-polypeptide was analyzed by dynamic light scattering (DLS) at several temperatures between 4° C. and 37° C. to determine the thermal stability of the micelles, and to determine their radius of hydration (Rh). […] In contrast, RLP40-ELP80 (SEQ ID NO: 84) and RLP40-ELP80-Fn3 (SEQ ID NO: 96) self-assembled into micelles with a Rh of 30 and 32 nm, respectively, between 20-37° C. (FIG. 15).
Therefore, to get a more accurate picture, we monitored the Rh as we slowly cooled the solution. We observed two different overall behaviors. [S]-40-[QHN]-40 (SEQ ID NO: 100) upon cooling underwent a clear unimer to micelle transition at ˜55° C. and a clear micelle to aggregate transition at 28° C. (FIG. 32B). A unimer to micelle transition that is temperature dependent is known as the critical micellization temperature (CMT). As we know from before, this UCST aggregation temperature is dependent on the solution concentration. [S]-80-[QHN]-40 (SEQ ID NO: 101) remained a micelle at the highest temperature we could measure with the instrument. Upon cooling the size of the aggregate increased slightly until a clear aggregate transition at 18° C.

K562+αvβ3 cell line = test: Flow cytometry cell uptake of Alexa488-labeled micelles; format: cell-based; details: 10 μM, 37 °C, 2 hours
Procedure: Approximately 1×10^8 cells were harvested from either K562 or K562+αvβ3 cell lines and resuspended into 1 mL of serum-free medium containing 10 μM of the various Fn3-decorated and control block polypeptides. LM609 antibody was also resuspended at 10 μM in serum-free medium. Micelles were prepared from a mixture of ˜10% Alexa 488 dye-labeled RLP-ELP block co-polypeptides and 90% unlabeled polypeptides on a molar basis. The cells were incubated at 37° C. with the labeled micelles for a specified time, then rinsed with 1 mL of Hanks Buffered Saline Solution (HBSS), collected by centrifugation at 500 RCF for 5 min at 20° C., and resuspended in HBSS+1% BSA. Cells were maintained on ice until they were analyzed by flow cytometry (BD Accuri C5). The cell fluorescence intensity of Alexa 488 (Green) was quantified after gating to remove cellular debris on unstained control samples.
To assess the intracellular uptake of these particles, we used a cell line stably transfected with the αvβ3 integrin. The native cell line, K562, has endogenously low levels of expression of this receptor and therefore serves as the receptor-negative control, and the un-decorated RLPXX-ELP80 micelles serve as ligand-negative controls for each type—size and shape—of micelle. […]

[3] = Cryo-TEM micelle core size, inter-core spacing and aspect ratio; format: physicochemical; details: for Spacing (nm) / Core radius (nm): Table 2, mean ± standard deviation; for Spacing (nm): inter-core spacing; for Core radius (nm): 10 μM in 140 mM PBS; for Core Diameter (nm) [n = 30] / Intra-core Spacing (nm) [n = 30]: Table 8, 15 °C, 140 mM PBS, 10 μM
Outline: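 Vitrified 10 μM RLPn-ELP80 (3 s blot, chamber at 15° C., 100% humidity) imaged by cryo-TEM at 80 keV. Core size and spacing measured manually on at least 25 particles; aspect ratio from the longest straight line of a particle and its perpendicular.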

Row | Molecule | Nagg [1] | Rg(nm) [1] [nm] | Rh (nm) [1] [nm] | ρ [1] | Rh (DLS at several temperatures) [2] [nm] | cell fluorescence (Geometric Mean±StDev) (K562+αvβ3 cell line) | core radius (cryo-TEM) [3] | spacing between particle cores (cryo-TEM) [3] [nm] | Spacing (nm) [3] [nm] | Core radius (nm) [3] [nm] | Core Diameter (nm) [n = 30] [3] [nm] | Intra-core Spacing (nm) [n = 30] [3] [nm] | aggregation number (Nagg) [1] | hydrodynamic radius (Rh) [1] | radius of gyration (Rg) [1] | shape factor / form factor (Rg/Rh) [1]
1 | RLP40-ELP80: RLP-ELP block co-polypeptide forming spherical micelles (protein) QYPSDGRGQYPSDGRGQYPSDGRGQYPSDGRGQYPSDGRGQYPSDGRGQYPSDGRGQYPSDGRGQYPSDGRGQYPSDGRGQYPSDGRGQYPSDGRGQYPSDGRGQYPSDGRGQYPSDGRGQYPSDGRGQYPSDGRGQYPSDGRGQYPSDGRGQYPSDGRGQYPSDGRGQYPSDGRGQYPSDGRGQYPSDGRGQYPSDGRGQYPSDGRGQYPSDGRGQYPSDGRGQYPSDGRGQYPSDGRGQYPSDGRGQYPSDGRGQYPSDGRGQYPSDGRGQYPSDGRGQYPSDGRGQYPSDGRGQYPSDGRGQYPSDGRGQYPSDGRGGAGVPGGGVPGAGVPGGGVPGAGVPGGGVPGAGVPGGGVPGAGVPGGGVPGAGVPGGGVPGAGVPGGGVPGAGVPGGGVPGAGVPGGGVPGAGVPGGGVPGAGVPGGGVPGAGVPGGGVPGAGVPGGGVPGAGVPGGGVPGAGVPGGGVPGAGVPGGGVPGAGVPGGGVPGAGVPGGGVPGAGVPGGGVPGAGVPGGGVPGAGVPGGGVPGAGVPGGGVPGAGVPGGGVPGAGVPGGGVPGAGVPGGGVPGAGVPGGGVPGAGVPGGGVPGAGVPGGGVPGAGVPGGGVPGAGVPGGGVPGAGVPGGGVPGAGVPGGGVPGAGVPGGGVPGAGVPGGGVPGAGVPGGGVPGAGVPGGGVPGAGVPGGGVPGAGVPGGGVPGAGVPGGGVPGAGVPGGGVPGAGVPGGGVPGAGVPGGGVPGAGVPGGGVPGAGVPGGGVPGAGVPGGGVPGAGVPGGGVPGAGVPGGGVPGAGVPGGGVPGAGVPGGGVPGAGVPGGGVPGAGVPGGGVPGAGVPGGGVPGAGVPGGGVPGAGVPGGGVPGAGVPGGGVPGAGVPGGGVPGAGVPGGGVPGAGVPGGGVPGAGVPGGGVPGAGVPGGGVPGAGVPGGGVPGAGVPGGGVPGAGVPGGGVPGAGVPGGGVPGAGVPGGGVPGAGVPGGGVPGAGVPGGGVPGAGVPGGGVPGAGVPGGGVPGAGVPGGGVPGAGVPGGGVPGAGVPGGGVPGAGVPGGGVPGAGVPGGGVPGAGVPGGGVPGAGVPGGGVPGAGVPGGGVPGAGVPGGGVPGAGVPGGGVPGAGVPGGGVP | 68 | 29.9 | 33.3 | 0.89 | 30 | 8686±8787 | approximately 12.8 nm | 29.5 | 29.5 ± 4.8 | 12.8 ± 1.8 | 24.3 ± 2.8 | 23.6 ± 4.5 | – | – | – | –
2 | RLP80-ELP80: RLP-ELP block co-polypeptide forming worm-like micelles (protein) QYPSDGRGQYPSDGRGQYPSDGRGQYPSDGRGQYPSDGRGQYPSDGRGQYPSDGRGQYPSDGRGQYPSDGRGQYPSDGRGQYPSDGRGQYPSDGRGQYPSDGRGQYPSDGRGQYPSDGRGQYPSDGRGQYPSDGRGQYPSDGRGQYPSDGRGQYPSDGRGQYPSDGRGQYPSDGRGQYPSDGRGQYPSDGRGQYPSDGRGQYPSDGRGQYPSDGRGQYPSDGRGQYPSDGRGQYPSDGRGQYPSDGRGQYPSDGRGQYPSDGRGQYPSDGRGQYPSDGRGQYPSDGRGQYPSDGRGQYPSDGRGQYPSDGRGQYPSDGRGQYPSDGRGQYPSDGRGQYPSDGRGQYPSDGRGQYPSDGRGQYPSDGRGQYPSDGRGQYPSDGRGQYPSDGRGQYPSDGRGQYPSDGRGQYPSDGRGQYPSDGRGQYPSDGRGQYPSDGRGQYPSDGRGQYPSDGRGQYPSDGRGQYPSDGRGQYPSDGRGQYPSDGRGQYPSDGRGQYPSDGRGQYPSDGRGQYPSDGRGQYPSDGRGQYPSDGRGQYPSDGRGQYPSDGRGQYPSDGRGQYPSDGRGQYPSDGRGQYPSDGRGQYPSDGRGQYPSDGRGQYPSDGRGQYPSDGRGQYPSDGRGQYPSDGRGQYPSDGRGGPGAGVPGGGVPGAGVPGGGVPGAGVPGGGVPGAGVPGGGVPGAGVPGGGVPGAGVPGGGVPGAGVPGGGVPGAGVPGGGVPGAGVPGGGVPGAGVPGGGVPGAGVPGGGVPGAGVPGGGVPGAGVPGGGVPGAGVPGGGVPGAGVPGGGVPGAGVPGGGVPGAGVPGGGVPGAGVPGGGVPGAGVPGGGVPGAGVPGGGVPGAGVPGGGVPGAGVPGGGVPGAGVPGGGVPGAGVPGGGVPGAGVPGGGVPGAGVPGGGVPGAGVPGGGVPGAGVPGGGVPGAGVPGGGVPGAGVPGGGVPGAGVPGGGVPGAGVPGGGVPGAGVPGGGVPGAGVPGGGVPGAGVPGGGVPGAGVPGGGVPGAGVPGGGVPGAGVPGGGVPGAGVPGGGVP | 2240 | 145.4 | 114.3 | 1.27 | 112 | 24904±13884 | 19.9 nm | 34.7 | 34.7 ± 4.2 | 19.9 ± 2.8 | 39.4 ± 5.4 | 35.0 ± 4.5 | in the thousands of chains | over 100 nm | above 140 nm | around 1.2
